Biological target: recombinant trypanothione reductase from Leishmania braziliensis (Leishmania braziliensis) (UniProt A4H480)

crotapotin from Crotalus durissus terrificus venom (natural protein)
IC50 of inhibition of LbTR enzymatic activity (reduction of T[S]2, DTNB-coupled, absorbance at 412 nm; 0.04 µM enzyme, crotapotin 0, 100, 150 and 200 µM, 28 °C, pH 7.5): 224 μM
